The labels stand for the following.
B1: H1-Ab18 (antibody, V domains shown)
VH: EVQLVESGGGLLKPGGSLRLSCAASGFTFNNAWMSWVRQPPGKGLEWVGRIKSESDDETPDYAAPVKGRFDISRDDSKNMLYLQMSSLKTEDTAVYYCATDHSSHYYDRPDYWGQGTLVTVSS
VL: QSVLTQSPSASASLGASVKLTCILSSGHSDYAIAWHQQQPEKGPRYLMKLNIDGSHSKGDGIPDRFSGSTSGAERYLTISSLQSEDEADYYCQTWDTGIHVFGGGTRLTVL
B2: H1-Ab38 (antibody, V domains shown)
VH: EVQLVESGGGVVQPGRSLRLSCAASGFTFSSNAMHWVRQAPGKGLEWVAVISSDGSSKYYADSVKGRFTISRDNSKNTLFLQMNSLRADDTAIYYCARRYDGFDYWGQGSLVTVSS
VL: QSVLTQPASVSGSPGQSITISCTGTSSDVGSYNLVSWYQQHPGKAPKLMIYEVNKRPSGVSNRFSGSKSGNTASLTISGLQAEDEADYHCCSYAGSYTYVFGGGTKLTVL
B3: H1-Ab61 (antibody, V domains shown)
VH: EVQLLESGAEVKKPGESLKISCKTSGYTFPRYWVGWVRQMPGKGLEWMGFIYPGDATTRYSPSFQGQVTISADKSINTAYLHWSSLKASDTAVYFCARHPGDKSFYYYGLDVWGQGTTVTVSS
VL: AIRMTQSPSTLSASVGDRVTITCRASQSIRSWLAWYQQKPGKAPKLLISKASSLQSGVPSRFSGTGSGTEFTLTISSLQPDDFATYYCQQYNSDSITFGQGTRLEIK
B4: H1-Ab8 (antibody, V domains shown)
VH: EVQLVQSGAEVKKPGASVKVSCKASGYTFADYYIHWVRQAPGQGLEWMGWINPNSGDTNYAQKFQGRVTMTRDTSISTGDMELSRLRSDDTAVYYCARANRGGYFAWAFFDFWGQGTLVTVSS
VL: EIVLTQSPGTLSLSPGERATLSCRASQSVSSRNLAWYQQKPGQAPRLLIYGASSRATGIPDRFSGSGSGTDFILSISRLEPEDFAVYYCQQYGSSPLTFGGGTKVEIK
B5: H1-Ab9 (antibody, V domains shown)
VH: EVQLVESGAEVKKPGAPVKVSCKASGYTFTRYYIHWVRQAPGQGLEWMGWINPDSGDTKCAQRFQGRVTMTRDTSVSTAYMELRRLGSDDTALYYCARIQLRSDGFDLWGQGTLVTVSS
VL: QSALTQPASVSGSPGQSITISCTGTSSDIGSYKFVSWYQQHPGKAPKVMIYEVTQRPSGVSNRFSGSKSGNTASLTISGLQAEDEADYYCCSYAGSSFWVFGGGTTLTVP
B6: H1-Ab11 (antibody, V domains shown)
VH: QVQLVQSGAEVKKPGSSVKVSCKASGVTFDTYAFSWVRQAPGQGLEWMGGISPIFTTTNYAQTFQGRVTITADKSTSTAYMELSSLISEDTAVYYCAKGGPTTGTPYYVFGLDVWGQGTMVTVSF
VL: DIVMTQSPLSSPVTLGQPASISCRSSQSLVHSDGNTYLSWLHQRPGQPPRLLIYKISNRFSGVPDRFTGSGAGTDFTLKISRVEAEDVGVYYCMQATQFQTFGQGTKVEIK
B7: H1-Ab53 (antibody, V domains shown)
VH: EVQLVESGLRLVKPSETLSVTCTVSGGSMSTTSYYWGWIRQPPGKALEWIGSIYYDGNSYYKPSLRSRFTMLVDTSKNQFSLKLTSVTAADTAVYYCARMSYMDYDFSTGYWNWFDPWGQGTLVTVSS
VL: QSVLTQPASVSGSPGQSITISCTGTRRDVGSYRLVSWYQHHPGKAPKLMIYEGTKRPSGVSDRFSGSKSGNTASIIISGFQAEDEADYYCCSYAGSSTWVFGGGTRVTVL
B8: H1-Ab15 (antibody, V domains shown)
VH: EVQLVESGAEVKKPGSSVTVSCKASGNIFNSYTVSWVRQVPGQGLEWVARVIPTIGMSNYAPKLQGRVTVTADRSTNTAYMEVTSLRSEDTAVYYCATGPSYYYDANGSPTDYWGQGTLVTVSS
VL: DIQMTQSSATLSVSPGETATLSCRASQSVSSHLVWYQQKPGQAPRLIIYGASTRATGIPVRFSGSRSGTEFTLTISSLQSEDFAIYYCQQYNNWPWTFGQGTKVEIK
B9: H1-Ab26 (antibody, V domains shown)
VH: EVQLVQSGGGLVQPGSSLRLSCAASGFTFSNFAMSWVRQAPGKGLEWVSTINAGSGSKDYANSVKGRFTISRDNTKNTLYLQMKSLRAEDTAVYYCAKDTGHTIFGVVRPYYNGMDVWGQGTTVTVSS
VL: DNQMTQSPLSLPVTLGQPASISCRSSQSLVYSDGNTYLNWFQQRPGQSPRRLIYKVSNRDSGVPDRFSGSGSGTDFTLKISRVEAEDVGVYYCMQGTHPYTFGQGTKVEIK
B10: H1-Ab27 (antibody, V domains shown)
VH: EVQLVQSGGGLVQPGSSLRLSCAASGFTFSNFAMSWVRQAPGKGLEWVSTINAGSGSKDYANSVKGRFTISRDNTKNTLYLQMKSLRAEDTAVYYCAKDTGHTIFGVVRPYYNGMDVWGQGTTVTVSS
VL: EIVMTQSPGTLSLSPGERATLSCRASQSVSSSYLAWYQQKPGQAPRLLIYGASSRATGIPDRFSGSGSGTDFTLTITRLEPEDFAVYYCQQYGGSPMYTFGQGTKVEIK
B11: H1-Ab23 (antibody, V domains shown)
VH: EVQLVESGGGLVKPGGSLRLSCAASGFTFSSYSMHWVRQAPGKGLEWISSISSTGNYIYYADSVKGRFTISRDNARNSLYAQLNSLRAEDTAVYYCATGVTSSYGGHPGYFDSWGQGTLVTVSS
VL: DIRMTQSPSSLSASVGDRVTITCQASQDISKYLNWYQQKPGKAPKVLIYDASNLETGVPSRFSGSRSGTDFTFTISRLQPEDIGTYYCQQYDDPFLTFGGGTKVEIK
B12: H1-Ab16 (antibody, V domains shown)
VH: EVQLVESGAEVKKPGSSVKVSCTASGGAFNSHTISWLRQTPGQGLEWMGRIIPILGMANYAQKFHGRVTITADISTNTAYMELSSLRSEDTAVYSCAGGTSRWFGDVEYWGQGSLVTVSS
VL: EIVLTQSPLSLPVTLGQPASISCRSSQSLVFSDGNTYLSWFHQRPGQAPRRLIYKVSDRDSGVPDRFSGSGSGTDFTLKISRVEAEDVGVYYCMQGSHWPPSFGPGTKVEIK
B13: H1-Ab51 (antibody, V domains shown)
VH: EVQLVESGPGLVKPSETLSLTCTVSGGSISSNTYYWGWIRQPPGKGLEWIETIYYSGSTYYNPSLKSRVTISVDTSKNQFSLKLSSVTAADSAVYYCARSYCGGGCNFDAFDIWGQGTVVTVSS
VL: QSVLTQPASVSGSPGQSITISCTGSSSDVGGYNYVSWYQQHPGKAPKLMIFDVSNRPSGVSNRFSGSKSGNTASLTISGLQAEDEADYYCSSYTSNITLVFGGGTKLTVL
B14: H1-Ab1 (antibody, V domains shown)
VH: EVQLVQSGAEVKKPGASVKVSCKASGYIFTSYGISWVRLAPGQGLEWMGWISGYNSNTNYAQKFQGRVTVTADTSTSTAYMELRSLRSDDTAVYYCARDRAHILTGYHFDCWGQGTLVTVSS
VL: DIQMTQSPLSLPVTLGQPASISCRSSQSLVYIDGNTYLNWFQQRPGQSPRRLIYKVSNRDSGVPDRFSGSGSGTDFTLKISSVEAEDVGVYYCMQGTHWPPYTFGQGTKVEIK
B15: H1-Ab3 (antibody, V domains shown)
VH: EVQLVESGAEVKRPGASVKVSCKASGYTFTSYGISWVRQAPGQGLEWMGWISAYNGNTNYAQKLQGRVIMTTDTSTSTAYMELRSLRSDDTAVYYCARDRAHILTGYHFDCWGQGTLVTVSS
VL: DIVMTQSPGTLSLSPGERATLSCGASQSVTSSYLAWYQQKPGQAPRLLIYDAPSRATGIPDRFSGSGSGTDFTLTISRLEPEDFAVYYCQQYGSSHVITFGQGTDWRLN
B16: H1-Ab2 (antibody, V domains shown)
VH: EVQLVQSGAEVKRPGASVKVSCKASGYTFTSYGISWVRQAPGQGLEWMGWISAYNGNTNYAQKLQGRVIMTTDTSTSTAYMELRSLRSDDTAVYYCARDRAHILTGYHFDYWGQGTLVTVSS
VL: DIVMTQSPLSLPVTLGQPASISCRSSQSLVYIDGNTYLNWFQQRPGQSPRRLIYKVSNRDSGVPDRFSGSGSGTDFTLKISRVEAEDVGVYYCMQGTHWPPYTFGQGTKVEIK
B17: H1-Ab33 (antibody, V domains shown)
VH: EVQLVESGGGLVQPGGSLRLSCAASGFTFSSYAMSWVRQAPGKGLEWVSGINAGGGSTFYADSVKGRFTISRGNSKNTLYLQMHSLRAEDTAIYYCAKDQGNAIFGLVIPSYYFDYWGQGTLVTVSS
VL: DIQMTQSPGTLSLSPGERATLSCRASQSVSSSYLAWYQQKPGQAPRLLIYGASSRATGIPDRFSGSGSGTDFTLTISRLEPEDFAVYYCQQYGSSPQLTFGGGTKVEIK
B18: H1-Ab37 (antibody, V domains shown)
VH: LVQLVESGGGLVQPGGSLRLSCAASGFTFSSYAMSWVRQAPGKGLEWVSGINAGGGSTFYADSVKGRFTISRDNSKNTLYLQMHSLRAEDTAIYYCAKDQGNAIFGLVIPSYYFDYWGQGTLVTVSS
VL: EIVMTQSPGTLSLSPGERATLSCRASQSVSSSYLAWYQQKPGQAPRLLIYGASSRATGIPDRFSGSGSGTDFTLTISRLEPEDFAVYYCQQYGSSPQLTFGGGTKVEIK
B19: H1-Ab4 (antibody, V domains shown)
VH: EVQLVESGGALRKPGASVRVSCRSSGYRFTSNGISWVRQAPGRGLEWMGWISANSGNTFYAQKFQGRVTMTTDTSASTAYVELRRLRPDDTAMYYCARDVHYRFDSWGQGTLVTVSS
VL: QSVLTQPPSASGSPGQSVAISCTGSSSDVGGYDWVSWYQQYPGKGPKLIIYEVNKRPPGVPDRFSGSKSGNTASLTVSGLQTEDEADYYCSSYAGGSRVFGGGTKLTVL
B20: H7-Ab3 (antibody, V domains shown)
VH: EVQLVESGAEVKKPGSSVKVSCKTSGGTFNIYAINWVRQAPGQGLEWMGMIIPIFGSPKTAREFQDRLTIDADTSTSTAYMELSNLTSEDTATYFCSRVADDYDFWSPNKFWGQGTLVTVSS
VL: DIQLTQSPSTLSASVGDTVTITCRASQSVNSWLAWYQQKPGKAPKLLIYKTFNLETGVPSRFSATGSGTEFTLTISRLQPDDFATYYCQQYNSNSHFGQGTKVEIK
B21: H7-Ab1 (antibody, V domains shown)
VH: EVQLVQSGAEVKKPGASVKVSCKTSYAMHWVRQAPGQRLEWMGWINAGNGYTKYSPKFQGRVTFTWDTSASTAYMELNSLRSEDTAVYYCAHGSGSYLNWFDPWGQGTLVTVSS
VL: QSVLTQPASVSGSPGQSITISCTGTSSDVGGYNYVSWYQQHPGKAPKLMIYEVSNRPSGVSNRFSGSKSGNTASLTISGLQAEDEVDYYCTSYTSSSTLVAFGRGTKLTVL
B22: H7-Ab4 (antibody, V domains shown)
VH: EVQLVESGAEVKKPGSSVKVSCKASGGTFSSHGINWVRQAPGQRLEWMGGINPISGTPHYAQKFQGRVTITADESTTTSYMELSSLRSEDTAVYYCARIHRAGLEANYWGQGTLVTVSS
VL: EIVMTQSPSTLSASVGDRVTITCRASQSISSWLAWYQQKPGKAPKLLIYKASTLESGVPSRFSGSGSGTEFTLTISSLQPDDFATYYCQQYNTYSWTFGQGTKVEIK

The first experiment has as its target H1N1 HA (A/California/04/2009) (Influenza A virus A/California/04/2009 …, UniProt C3W5S1, strain).
As for B1, the binding result is given as “binds”.

In the case of B2, the binding result is on record as “binds”.

For B3, the binding result is given as “binds”.

For B4, the binding result was “binds”.

For B5, the binding result is “binds”.

B6: the binding result is on record as “binds”.

As for B7, the binding result was “binds”.

Regarding B8, the binding result was “binds”.

As for B9, the binding result is reported as “binds”.

Take B10: the binding result is listed as “binds”.

On to B11, for which the binding result is recorded as “binds”.

Turning to B12, the binding result is reported as “binds”.

Turning to B13, the binding result is reported as “binds”.

For the molecule B14, the binding result was “binds”.

As to B15, the binding result is “binds”.

Consider B16, for which the binding result is on record as “binds”.

B17: the binding result is given as “binds”.

As to B18, the binding result is on record as “binds”.

Turning to B19, the binding result is “binds”.

In a further experiment the target is H7N9 HA (A/Shanghai/1/2013) (Influenza A virus A/Shanghai/1/2013 …, strain).
Take B20: the binding result is listed as “binds”.

On to B21, for which the binding result is “binds”.

Regarding B22, the binding result is reported as “binds”.

The record behind these values is PMC5551578 (The Journal of Experimental Medicine, 2017).
